Results as given in US20170137818, “APTAMER INHIBITING BIOLOGICAL ACTIVITY OF AUTOTAXIN BY BINDING WITH AUTOTAXIN, AND USE THEREOF” (RIBOMIC INC., published 2017).

B1: 12(61) (ssDNA)
DNA: CCTGGACGGAACCAGAATACTTTTGGTCTCCAGG
modifications: 2'-OMe C7,G9,A14,G15,A19,C20,A32,G33,G34; P-methyl C12 (between C12 and C13); 5' idT, 3' idT
B2: 12(131) (ssDNA)
DNA: CCTGGACGGAACCAGAATACTTTTGGTCTCCAGG
modifications: 2'-OMe C7,G9,A14,G15,A19,C20,A32,G33,G34; P-methyl G8; 5' 40 kDa PEG via ssH linker, 3' idT
B3: SEQ 8 aptamer (ssDNA)
DNA: GTGGTCTAGCTGTACTCCGAAAGCCGGAACCGTGCCAATGGTCGCTACTTCAGCTCCCCACAGTCAACGAGCTA
B4: 12(49) (ssDNA)
DNA: CCTGGACGGAACCAGAATACTTTTGGTCTCCAGG
modifications: 2'-OMe C1,G5,C7,G9,C12,C13,A14,G15,A19,C20,A32,G33,G34; 5' 40 kDa PEG via ssH linker, 3' idT
B5: 12(48) (ssDNA)
DNA: CCTGGACGGAACCAGAATACTTTTGGTCTCCAGG
modifications: 2'-OMe C7,G9,A14,G15,A19,C20,A32,G33,G34; 5' 40 kDa PEG (GL2-400GS2) via ssH linker, 3' idT
B6: 12(57) (ssDNA)
DNA: CCTGGACGGAACCAGAATACTTTTGGTCTCCAGG
modifications: 2'-OMe C7,G9,A14,G15,A19,C20,A32,G33,G34; 5' 40 kDa PEG (GL2-400GS2) via ssH linker; 3' C12 spacer
B7: 12(53) (ssDNA)
DNA: CCTGGACGGAACCAGAATACTTTTGGTCTCCAGG
modifications: 2'-OMe C7,G9,A14,G15,A19,C20,A32,G33,G34; 5' 80 kDa PEG (GL4-800TS) via ssH linker; 3' idT
B8: 12(52) (ssDNA)
DNA: CCTGGACGGAACCAGAATACTTTTGGTCTCCAGG
modifications: 2'-OMe C7,G9,A14,G15,A19,C20,A32,G33,G34; 5' 80 kDa PEG (GL4-800GS2) via ssH linker; 3' idT
B9: 12(51) (ssDNA)
DNA: CCTGGACGGAACCAGAATACTTTTGGTCTCCAGG
modifications: 2'-OMe C7,G9,A14,G15,A19,C20,A32,G33,G34; 5' 80 kDa PEG (GL2-800TS) via ssH linker; 3' idT
B10: 12(56) (ssDNA)
DNA: CCTGGACGGAACCAGAATACTTTTGGTCTCCAGG
modifications: 2'-OMe C7,G9,A14,G15,A19,C20,A32,G33,G34; 5' 40 kDa PEG (GL2-400GS2) via ssH linker; 3' C6 spacer
B11: 12(150) (ssDNA)
DNA: CCTGGACGGAACCAGAATACTTTTGGTCTCCAGG
modifications: 2'-OMe C7,G9,A14,G15,A19,C20,A32,G33,G34; P-isopropoxy between C12 and C13; 5' idT, 3' idT
B12: 12(151) (ssDNA)
DNA: CCTGGACGGAACCAGAATACTTTTGGTCTCCAGG
modifications: 2'-OMe C7,G9,A14,G15,A19,C20,A32,G33,G34; P-propoxy between C12 and C13; 5' idT, 3' idT

Each binder was assayed against T1, autotaxin (endogenous, human pooled serum) (Homo sapiens, UniProt Q13822 Q13822:36-863) (assay: inhibition; LPA production in serum, 0.10 uM). Conditions: not given.
B1 showed an activity of 91 % inhibition.
With CCTGGACGGAACCAGAATACTTTTGGTCTCCAGG (ssDNA, 2'-OMe C7,G9,A14,G15,A19,C20,A32,G33,G34; PS between G8 and G9; 5' idT, 3' idT) [12(77)] the activity was 88 % inhibition.
Work on B2 yielded an activity of 91 % inhibition.
CCTGGACGGAACCAGAATACTTTTGGTCTCCAGG (ssDNA, 2'-OMe C7,G9,A14,G15,A19,C20,A32,G33,G34; P-methyl G8,C12,C28; 5' idT, 3' idT) [12(119)] was tested, and the activity was 97 % inhibition.
In the case of CCTGGACGGAACCAGAATACTTTTGGTCTCCAGG (ssDNA, 2'-OMe C7,G9,A14,G15,A19,C20,A32,G33,G34; P-methyl G8; 5' idT, 3' idT) [12(92)], the activity is reported as 91 % inhibition.
In the case of CCTGGACGGAACCAGAATACTTTTGGTCTCCAGG (ssDNA, 2'-OMe C7,G9,A14,G15,A19,C20,A32,G33,G34; PS between G9 and A10; 5' idT, 3' idT) [12(105)], the activity is reported as 25 % inhibition.
CCTGGACGGAACCAGAATACTTTTGGTCTCCAGG (ssDNA, 2'-OMe C7,G9,A14,G15,A19,C20,A32,G33,G34; P-methyl T27; 5' idT, 3' idT) [12(97)] was tested, and the activity was 7 % inhibition.
In the case of CCTGGACGGAACCAGAATACTTTTGGTCTCCAGG (ssDNA, 2'-OMe C7,G9,A14,G15,A19,C20,A32,G33,G34; P-methyl G8,C12; 5' idT, 3' idT) [12(118)], the activity is reported as 98 % inhibition.

What follows are binders tested against T2, autotaxin (ENPP2/NPP2) (Homo sapiens, UniProt Q13822 Q13822:36-863) (assay: SPR; not more than 10% of SEQ 12 signal; aptamer 0.3 uM; solution A). Conditions: not given.
CCTGGACGGAACCAATACTTGGTCTCCAGG (ssDNA) [SEQ 15 aptamer]: no binding.

The binders below were run against T2, autotaxin (ENPP2/NPP2) (assay: inhibition; NPP2 assay, 1 mM pNP-TMP, 0.3 nM autotaxin, 37 C). Conditions: not given.
Binder B3 has an IC50 of 10 nM.

Each binder was assayed against T1, autotaxin (endogenous, human pooled …) (assay: inhibition; LPA production in serum, 1.0 uM). Conditions: not given.
In the case of CCTGGACGGAACCAGAATACTTTTGGTCTCCAGG (ssDNA, 2'-OMe C1,G5,C7,G9,C12,C13,A14,G15,A19,C20,A32,G33,G34; 5' idT, 3' idT) [12(42)], the activity is reported as 68 % inhibition.
For B4, the activity was 58 % inhibition.
For B5, the activity was 92 % inhibition.

These binders were tested against T2, autotaxin (ENPP2/NPP2) (assay: inhibition; LPA production, 0.20 uM aptamer, ~92% serum, 37C 3 h). Conditions: not given.
B6 showed an activity of 93 % inhibition.
In the case of CCTGGACGGAACCAGAATACTTTTGGTCTCCAGG (ssDNA, 2'-OMe C7,G9,A14,G15,A19,C20,A32,G33,G34; 5' idT; 3' C12 spacer) [12(54)], the activity is reported as 89 % inhibition.
In the case of B7, the activity is reported as 92 % inhibition.
B8 showed an activity of 92 % inhibition.
With CCTGGACGGAACCAGAATACTTTTGGTCTCCAGG (ssDNA, 2'-OMe C7,G9,A14,G15,A19,C20,A32,G33,G34; 5' C12 spacer; 3' idT) [12(55)] the activity was 91 % inhibition.
B9 showed an activity of 91 % inhibition.
With B10 the activity was 93 % inhibition.

These binders were tested against T2, autotaxin (ENPP2/NPP2) (assay: inhibition; NPP2 assay per text (column headed LysoPLD)). Conditions: not given.
Binder B11 has an IC50 of 0.17 nM.
B12 showed an IC50 of 0.32 nM.

These binders were tested against T2, autotaxin (ENPP2/NPP2) (assay: inhibition; NPP2 assay, 37 C; no SPR binding). Conditions: not given.
With CCTGGACGGAACCAATACTTGGTCTCCAGG (ssDNA) [SEQ 15 aptamer] the IC50 was 990 nM.

Each binder was assayed against FGF2 (UniProt P09038 P09038:135-288) (assay: SPR; specificity control; FGF2 immobilized, aptamer 0.3 uM; solution A). Conditions: tags: PeproTech.
Sequence of FGF2 (P09038 135-288, one chain of several): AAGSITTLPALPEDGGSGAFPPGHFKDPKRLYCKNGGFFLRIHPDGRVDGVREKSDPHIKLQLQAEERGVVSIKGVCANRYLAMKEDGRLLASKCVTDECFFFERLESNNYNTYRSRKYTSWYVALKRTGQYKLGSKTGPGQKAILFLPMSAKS
B5: no binding.
